Assay results as given in paper PMC10303109 (Molecules, 2023).

Biological target: receptor-binding domain (RBD) of the wild-type SARS-CoV-2 spike protein (319-541 aa) (SARS-CoV-2, UniProt P0DTC2)
Assay: cryo-EM structure
Details: both partners purified

B1: Fab domain of the antibody REGN10987 (Fab, V domains shown)
VH: QVQLVESGGGVVQPGRSLRLSCAASGFTFSNYAMYWVRQAPGKGLEWVAVISYDGSNKYYADSVKGRFTISRDNSKNTLYLQMNSLRTEDTAVYYCASGSDYGDYLLVYWGQGTLVTVSS
VL: QSALTQPASVSGSPGQSITISCTGTSSDVGGYNYVSWYQQHPGKAPKLMIYDVSKRPSGVSNRFSGSKSGNTASLTISGLQSEDEADYYCNSLTSISTWVFGGGTKLTVL
binding result: binds
